According to US20190194310A1 (NUMAB INNOVATION, published 2019):

B1: humanized scFv 16-02-B03-sc02 (scFv)
scFv: MDIQMTQSPSSLSASVGDRVTITCQSSQSVYSSNLAWYQQKPGKAPKLLIYSASKLASGVPSRFSGSGSGTDFTLTISSLQPEDEATYYCQGTYYTSNWLNAFGGGTKLTVLGGGGGSGGGGSGGGGSGGGGSEVQLVESGGGLVQPGGSLRLSCAASGIDLSSYAMGWVRQAPGKGLEWIGTISVGGSTYYANWAEGRFTISRDNSKNTVYLQMNSLRAEDTAVYYCAGGDYINFFYFNIWGQGTLVTVSS
notes: CDR graft on a Vκ1/VH3 scaffold; also called 16-02-B03-sc02 (CDR); 16-02-B03-sc02-scFv
B2: recombinant human TNFβ (ligand, UniProt P01374 35-205, looked up)
chain: LPGVGLTPSAAQTARQHPKMHLAHSTLKPAAHLIGDPSKQNSLLWRANTDRAFLQDGFSLSNNSLLVPTSGIYFVYSQVVFSGKAYSPKATSSPLYLAHEVQLFSSQYPFHVPLLSSQKMVYPGLQEPWLHSMYHGAAFQLTQGDQLSTHTDGIPHLVLSPSTVFFGAFAL

Experiments:
recombinant human TNFβ = biological target: B2; experiment: competition ELISA: scFv coated, biotinylated TNFα, unlabeled TNFβ as competitor
Method: To control precision of the response, the dose-response curves was analyzed in duplicate.

Rhesus monkey TNFα [1] = biological target: T1, Rhesus monkey TNFα (Rhesus monkey (Macaca mulatta), UniProt P48094 77-233); experiment: SPR (MASS-1); TNFα amine-coupled on chip, scFv injected 45-1.4 nM
T1 construct: also called Rhesus TNFα; Macaca mulatta TNFα
Method: (§1) In a second step, Single Injection Cycle Kinetics (SiCK) were measured from a single injection cycle by simultaneously injecting six analyte samples at different concentrations into each of the eight parallel channels in the MASS-1 system. […] The apparent dissociation (kd) and association (kₐ) rate constants and the apparent dissociation equilibrium constant (KD) were calculated with the MASS-1 analysis software (Analyzer, Sierra Sensors) using one-to-one Langmuir binding model and quality of the fits was monitored based on Chi², which is a measure for the quality of the curve fitting. The smaller the value for the Chi² the more accurate is the fitting to the one-to-one Langmuir binding model. For affinity screenings, results were deemed valid if the Chi² was below 10 for the concentration analyzed. In cases where several scFv concentrations were analyzed, results were deemed valid if the average Chi² over all the concentrations tested was below 10.

[2] = biological target: T2, recombinant Cynomolgus monkey TNFα (Cynomolgus monkey (Macaca fascicularis), UniProt P79337 77-233); experiment: as above
T2 construct: also called Cynomolgus TNFα; Cyno TNFα
Method: as §1

recombinant human TNFα [3] = biological target: T3, recombinant human TNFα (human, UniProt P01375 77-233); experiment: as above
T3 construct: also called TNFα trimer; biotinylated TNFα
Method: as §1

recombinant human TNFα [4] = biological target: T3, recombinant human TNFα; experiment: inhibition ELISA; biotinylated TNFα 960 pM pre-incubated with scFv; competitor TNFRI-Fc coated
recombinant human TNFα [5] = biological target: T3, recombinant human TNFα; experiment: inhibition ELISA; biotinylated TNFα 960 pM pre-incubated with scFv; competitor TNFRII-Fc coated
Method: For the second inhibition ELISA, the extracellular domain of TNFRII fused to the Fc region of human IgG (R&D Systems, Cat. No. 726-R2) was coated at a concentration of 2 μg/mL. All subsequent steps were identical for both assays.

Rhesus monkey TNFα [6] = biological target: T1, Rhesus monkey TNFα; experiment: cell-based or functional assay
[7] = biological target: T2, recombinant Cynomolgus monkey TNFα; experiment: cell-based or functional assay
recombinant human TNFα [8] = biological target: T3, recombinant human TNFα; experiment: cell-based or functional assay
[9] = biological target: B1; experiment: competition ELISA: scFv coated, biotinylated TNFα, unlabeled TNFβ or TNFα as competitor
Source text: (§2) The quality of recombinant human TNFβ has been analyzed 1) for purity by SDS-page and HPLC analysis, and 2) for biological activity in the mouse L929 cytotoxicity assay, by the manufacturer of the protein.

[10] = biological target: B1; experiment: competition ELISA: scFv coated, biotinylated TNFα 75 ng/mL, unlabeled TNFβ as competitor
Source text: as §2

T3 sequence (P01375 77-233 limits assumed): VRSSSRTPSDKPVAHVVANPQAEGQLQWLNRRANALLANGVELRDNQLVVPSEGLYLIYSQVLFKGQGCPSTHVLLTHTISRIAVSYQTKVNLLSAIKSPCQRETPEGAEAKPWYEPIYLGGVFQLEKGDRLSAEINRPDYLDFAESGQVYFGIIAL
T2 sequence (P79337 77-233 limits assumed): as the sequence (P01375 77-233 limits assumed) above, with L37V, R44T, T72N, R138L counted along it
T1 sequence (P48094 77-233 limits assumed): as the sequence (P01375 77-233 limits assumed) above, with R44T, T72N, R138L counted along it

| Binder | binding result (recombinant human TNFβ) | Kd (Rhesus monkey TNFα [1]) | koff (Rhesus monkey TNFα [1]) | kon (Rhesus monkey TNFα [1]) | Kd [2] | koff [2] | kon [2] | Kd (recombinant human TNFα [3]) | koff (recombinant human TNFα [3]) | kon (recombinant human TNFα [3]) | IC50 (recombinant human TNFα [4]) | IC50 (recombinant human TNFα [5]) | Species-specificity IC50 [ng/mL], rhesus (L929 assay) (Rhesus monkey TNFα [6]) | Species-specificity IC50 [ng/mL], cyno (L929 assay) [7] | Potency (L929 assay), rel. IC50 (IC50,Infliximab/IC50,scFv, ng/mL) (recombinant human TNFα [8]) | Species-specificity IC50 [ng/mL], human (L929 assay) (recombinant human TNFα [8]) | Target selectivity, rel. IC50 of TNFβ vs TNFα [9] | IC50 [10] |
| --- | --- | --- | --- | --- | --- | --- | --- | --- | --- | --- | --- | --- | --- | --- | --- | --- | --- | --- |
| B1 | no binding (tested: 1250 µg/mL) | 1.6 nM | 0.00022 s⁻¹ | 130000 M⁻¹ s⁻¹ | 1.1 nM | 0.00021 s⁻¹ | 180000 M⁻¹ s⁻¹ | 0.16 nM | 6.6e-05 s⁻¹ | 410000 M⁻¹ s⁻¹ | 0.0737 mg/L | 0.0795 mg/L | 71.8 ng/mL | 99.3 ng/mL | 1.7 | 6.9 ng/mL |  |  |
| B2 |  |  |  |  |  |  |  |  |  |  |  |  |  |  |  |  | > 10000 fold | > 1250 mg/L |
